Series [1] relates to A375/MC1R tumors. The experiment in a line: Efficacy in SCID mice bearing A375/MC1R tumors. Type of series: in vivo. To be noted: after injection; control groups. As for the experimental part: Mice were observed daily for health and twice per week weighed and tumor volumes measured by caliper. When the tumors reach 2000 mm^3 (experimental endpoint), animals were euthanized. Euthanizations prior to 2000 mm^3 were due to clinical endpoints, i.e. predominantly due to tumor ulceration.
1.9-3.3 μCi of MC1RL-DOTA-^225Ac, 1.8-2.7 μCi of scrambled peptide-DOTA-^225Ac, an excess of the cold agent (MC1RL-DOTA-^139La) and saline were injected to the SCID mice bearing A375/MC1R tumors injection (n=10 per group, volume of the tumors: 57-266 mm3). Mice were observed daily for health and twice per week weighed and tumor volumes measured by caliper. When the tumors reach 2000 mm^3 (experimental endpoint), animals were euthanized. Euthanizations prior to 2000 mm^3 were due to clinical endpoints, i.e. predominantly due to tumor ulceration.
These 2 mice are currently tumor free 150 days post injection. The other 7 treated mice were euthanized at an average of 86 days due to tumor ulceration without progression. While the median time-to-endpoint (tumor >2000 mm^3) of control mice treated with saline, MC1RL-DOTA-^139La (cold surrogate) and scrambled peptide-DOTA-^225Ac were 22, 24 and 32 days respectively after injection.

The target of series [2] is T1, MC1R (Hek293/MC1R cells) (Homo sapiens, UniProt Q01726).
T1 construct: expressed in transfected cells; host or cells: Hek293
The experiment in a line: Saturation TRF binding assay with europium-chelated compounds. The conditions noted are these: Eu chelate; 20x MC1RL-DOTA used for blocking; two repeats; read-out: Kd, specific saturation binding. An excerpt:
The binding sequence is 1-Phenylbutyric acid-His(D)Phe-Arg-Trp-Gly-Lys(Ahx-DOTA)-CONH2. Eu is chelated into the conjugated DOTA for lanthanide-based binding assays but ^225Ac, ^68Ga, or ^111In can also be chelated. […] 20×MC1Rl-DOTA was used for blocking. […] Data is the result of two repeats.
The binding sequence is 1-Phenylbutyric acid-His(D)Phe-Arg-Trp-Gly-Lys(DOTA)-CONH2. Eu is chelated into the conjugated DOTA for lanthanide-based binding assays but ^225AC, ^68Ga, or ^111In can also be chelated. […] 20×MC1Rl-DOTA was used for blocking. […] Data is the result of two repeats.
The binding sequence is 1-Phenylbutyric acid-His(D)Phe-Arg-Trp-Gly-Lys(D-di-Glu-DOTA)-CONH2. Eu is chelated into the conjugated DOTA for lanthanide-based binding assays but ^225Ac, ^68Ga, or ^111In can also be chelated. […] 20×MC1Rl-DOTA was used for blocking. […] Data is the result of two repeats.
Time-resolved fluorescence (TRF) competition binding assays were performed to determine binding affinities of these DOTA conjugates (FIG. 2). The TRF method takes advantage of the long fluorescence lifetime of the lanthanide Europium and can detect less than one attomole in a multiwell plate sample. Hek293/MC1R cells (Hek293 cells engineered to over-express MC1R) were used for the binding assays. […]

Series [3] addresses T1, MC1R (Hek293/MC1R cells). The experiment in a line: Time-resolved fluorescence (TRF) competition binding assay. The conditions noted are these: competitive binding, read-out: binding affinity to MC1R (Ki). As for the experimental part:
FIG. 2 is a graph from representative competitive binding assays of the ^139La- and ^69Ga-DOTA-MC1RL peptides.
Time-resolved fluorescence (TRF) competition binding assays were performed to determine binding affinities of these DOTA conjugates (FIG. 2). The TRF method takes advantage of the long fluorescence lifetime of the lanthanide Europium and can detect less than one attomole in a multiwell plate sample. Hek293/MC1R cells (Hek293 cells engineered to over-express MC1R) were used for the binding assays. Saturation TRF binding assays were performed using versions of the compounds with chelated europium to determine specific and non-specific binding (FIG. 17-20).

A short description of series [4]: MTD study of the radiotherapeutic agent. Type of series: in vivo, mice. An excerpt: FIGS. 6A, 6B and 6C are graphs from a MTD study of ^225Ac-DOTA-MC1RL radio-therapeutic agent.
(Table 3). […] Blood urea nitrogen (BUN) (FIG. 6B) and blood creatinine (FIG. 6C) levels, and pathology of a range of tissues including heart, lungs, brain, kidney and liver were all unremarkable.

Series [5] concerns the target MC1R (Homo sapiens, UniProt Q01726). To be noted: read-out: binding affinity (Ki); cited from earlier work.
The conditions of series [6]: in vivo fluorescence imaging and mathematical model; cited from earlier work.
The subject of series [7] is A375/MC1R and A375 xenograft tumors. The experiment in a line: In vivo tumor targeting, bilateral A375/MC1R and A375 xenografts, fluorescence imaging. Set-up: species or system nude mice. The conditions noted are these: 4 h post-injection, i.v., P≤0.05, n=3. How it is done:
FIG. 3 contains data from in vivo targeting of a MC1R specific probe. Left mice: Representative images of normalized fluorescence intensity maps overlaid on mice bearing xenograft tumors. […] A blocking experiment (right mouse) was performed by coinjection of 0.25 μg unlabeled NDP-α-MSH and 3 nmol/kg of the MC1RL-800 probe. […] Right mouse: Representative tomographic image of a mouse bearing a B16F10 xenograft tumor at 4 h after injection of 3 nmol/kg of the MC1RL-800 imaging probe using the FMT 2500 LX quantitative fluorescence tomography in vivo imaging system (PerkinElmer).
Previously, to investigate tumor targeting of the infrared conjugate of the ligand in vivo, bilateral subcutaneous xenograft tumors with A375/MC1R engineered cells in the right flank and A375 parental cells with relatively low MC1R expression in the left flank of nude mice and MC1RL-800 probe was injected intravenously and fluorescence accumulation was monitored over time. […] In vivo blocking studies were performed to determine that probe retention in the tumor was due to specific binding (FIG. 3, left mice).

Values joined by “and” are separate entries in the source; they are usually repeats but may differ in a detail not shown here. Identical values can stand only once. Where a SMILES comes first, the peptide text is derived from it. Side-chain parts run from the residue outwards. [ ]: non-standard residue; d: D form. The star is where a group is joined. 1‑Phenylbutyric acid = 1-phenylbutyric acid N-terminal cap; DOTA = O=C(O)CN1CCN(CC(=O)O)CCN(CC(=O)*)CCN(CC(=O)O)CC1; Butanoyl(4-Ph) = O=C(CCCc1ccccc1)*; Ahx = NCCCCCC(=O)O

The values that follow come from patent US11406723B2, “Radiotherapeutic and companion imaging agents to target MC1R” (H. LEE MOFFITT CANCER CENTER AND RESEARCH INSTITUTE, INC., priority 2015, dated 2022).

T1 sequence (Q01726 whole entry): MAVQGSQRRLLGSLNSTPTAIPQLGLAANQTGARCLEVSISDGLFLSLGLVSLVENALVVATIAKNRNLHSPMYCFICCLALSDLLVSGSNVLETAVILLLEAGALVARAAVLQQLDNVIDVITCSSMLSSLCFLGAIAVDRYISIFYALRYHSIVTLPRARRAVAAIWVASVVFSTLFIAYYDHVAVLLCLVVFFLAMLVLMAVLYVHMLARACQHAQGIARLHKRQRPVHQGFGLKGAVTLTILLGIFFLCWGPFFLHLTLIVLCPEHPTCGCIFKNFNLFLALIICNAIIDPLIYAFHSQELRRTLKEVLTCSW
Chain of MC1R (Q01726 whole entry): as above

With `N=C(N)NCCC[C@H](NC(=O)[C@@H](Cc1ccccc1)NC(=O)[C@H](Cc1c[nH]cn1)NC(=O)CCCc1ccccc1)C(=O)N[C@@H](Cc1c[nH]c2ccccc12)C(=O)NCC(=O)N[C@@H](CCCCNC(=O)CCCCCNC(=O)CN1CCN(CC(=O)O)CCN(CC(=O)O)CCN(CC(=O)O)CC1)C(N)=O` (139La complex, metal not drawn) [^139La-DOTA-MC1RL] ({Butanoyl(4-Ph)}-H[dF]RWGK([Ahx-DOTA])-NH2), the “median time-to-endpoint (tumor >2000 mm^3)” value in series [1] was 24 days.
On to `N=C(N)NCCC[C@H](NC(=O)[C@@H](Cc1ccccc1)NC(=O)[C@H](Cc1c[nH]cn1)NC(=O)CCCc1ccccc1)C(=O)N[C@@H](Cc1c[nH]c2ccccc12)C(=O)NCC(=O)N[C@@H](CCCCNC(=O)CCCCCNC(=O)CN1CCN(CC(=O)O)CCN(CC(=O)O)CCN(CC(=O)O)CC1)C(N)=O` [1-Phenylbutyric acid-His(D)Phe-Arg-Trp-Gly-Lys(Ahx-DOTA)-CONH2] ({Butanoyl(4-Ph)}-H[dF]RWGK([Ahx-DOTA])-NH2), for which the Kd in series [2] was 0.88 nM.
Usually Ki stands for a dissociation constant, usually derived from enzyme kinetics or from competition with a known ligand. Turning to `N=C(N)NCCC[C@H](NC(=O)[C@@H](Cc1ccccc1)NC(=O)[C@H](Cc1c[nH]cn1)NC(=O)CCCc1ccccc1)C(=O)N[C@@H](Cc1c[nH]c2ccccc12)C(=O)NCC(=O)N[C@@H](CCCCNC(=O)CCCCCNC(=O)CN1CCN(CC(=O)O)CCN(CC(=O)O)CCN(CC(=O)O)CC1)C(N)=O` [DOTA-MC1RL] ({Butanoyl(4-Ph)}-H[dF]RWGK([Ahx-DOTA])-NH2), the Ki in series [3] was 0.24 nM and 0.3 nM.
Take `N=C(N)NCCC[C@H](NC(=O)[C@@H](Cc1ccccc1)NC(=O)[C@H](Cc1c[nH]cn1)NC(=O)CCCc1ccccc1)C(=O)N[C@@H](Cc1c[nH]c2ccccc12)C(=O)NCC(=O)N[C@@H](CCCCNC(=O)CCCCCNC(=O)CN1CCN(CC(=O)O)CCN(CC(=O)O)CCN(CC(=O)O)CC1)C(N)=O` [^225Ac-DOTA-MC1RL, metal not drawn] ({Butanoyl(4-Ph)}-H[dF]RWGK([Ahx-DOTA])-NH2): the overall tolerability entry in series [4] (MTD study) was “tolerated extremely well”. In series [4] (range of radioactivities), the “behavior in MTD study” value is “no signs of altered behavior”; the blood creatinine level result is “unremarkable”; the “blood urea nitrogen (BUN) level” value is on record as “unremarkable”; the “pathology of tissues including heart, lungs, brain, kidney and liver” value is recorded as “unremarkable”. In series [4] (range of radioactivities, weight gain decreased with increased activity), the “weight gain in MTD study” value was “All mice gained weight”.
In the case of “MC1RL-800: near-infrared fluorescent (NIRF) dye conjugated analog of MC1RL, imaging probe ({1‑Phenylbutyric acid}-H[dF]RWGK-NH2; also: NIR dye 800 conjugate, site not given here)”, the Ki in series [5] is 0.4 ± 0.1 nM. In series [6], the clearance result was “rapid renal clearance” and the “crossing of the blood brain barrier (BBB)” value is given as “does not cross the BBB”. Moreover, in series [7], the “normalized fluorescence signal of low-MC1R A375 tumors compared to A375/MC1R tumors” value was “significantly lower normalized fluorescence signal”.
